{
  "source": "patent US20250188194A1",
  "about": "“Method of treatment” (Nucleus Therapeutics Pty Ltd, priority 2021, published 2025)",
  "key": {"[1]": {"tested_on": "PLB-985 cells", "experiment": "Cellular penetration assay", "format": "cell-based, human", "settings": "PLB-985 cells in culture, 5 μM DX1 for one hour", "method": "FIG. 1. DX1 penetrates PLB-985 cells. Cells treated with control or 5 μM DX1 for one hour were washed, fixed, and immunostained to detect DX1. […] Dark stain represents alkaline phosphatase-based detection of signal. Bar: 25 μm.\nWork with isolated mouse or human neutrophils is challenging due to their short functional lifespans, and granulocyte-differentiated HL-60 and their subclone PLB-985 human acute myeloid leukemia cells provide a reliable alternative to isolated neutrophils for NETosis studies. The nuclear-penetrating anti-DNA autoantibody 3E10 and its derivative DX1 require expression of the nucleoside transporter ENT2 in order to penetrate target cells. ENT2 expression in HL-60 cells has previously been reported, and DX1 was confirmed to penetrate into ˜100% of PLB-985 cells in culture (FIG. 1).\nPLB-985 cells cultured on Shi-fix coverslips (Shikhar Biotech, Khumaltar, Lalitpur, Nepal) were treated for one hour with control media or media containing 5 μM DX1 and then washed and fixed in 100% chilled ethanol. Presence of DX1 in the cells was evaluated by incubation with Pierce™ Recombinant Protein L (1:1000) (#21189, Thermo Fisher Scientific), protein L polyclonal antibody (1:1000) (#PA1-72066, Thermo Fisher Scientific), and goat anti-chicken IgY (H+L) alkaline phosphatase secondary antibody (1:1000) (#PA1-28799, Thermo Fisher Scientific). […]"}, "[2]": {"tested_on": "differentiated PLB-985 cells", "experiment": "H3Cit western blot", "format": "cell-based, human", "settings": "10 μM DX1 one hour, then PMA; PMA control 0.64±0.06; N=3", "method": "FIGS. 5A-5B. […] Differentiated PLB-985 cells were pre-treated with control media or media containing 10 μM DX1 for one hour, followed by stimulation with PMA. Cellular contents were isolated and analyzed by H3Cit western blot. Representative cropped blot is shown in (5A), and quantification of H3Cit band intensity normalized to actin in (5B). […]\nHistone citrullination by PAD4 is a key step in NETosis that is targeted by the selective PAD4 inhibitor GSK484. Differentiated PLB-985 cells treated with control or 10 μM DX1 for one hour were stimulated by PMA, and cell contents were isolated and analyzed for H3Cit content by western blot with normalization to actin. […]\nDifferentiated PLB-985 cells at 8×10^5 cells/well in 12-well plates were incubated with control buffer or buffer containing 10 μM DX1 for one hour and then stimulated by addition of 300 nM PMA for two hours. Cells were isolated by centrifugation, lysed in RIPA buffer, and H3Cit content determined by western blot using anti-H3Cit primary (#AB5103, abcam, Cambridge, MA, USA) and goat anti-rabbit HRP-conjugated secondary antibody at 1:5000 (#AB205718, abcam). H3Cit band intensities normalized to actin loading control were determined by ImageJ (NIH, Bethesda, MD)."}, "[3]": {"tested_on": "MPO immunized mice", "experiment": "Mouse model of ANCA associated vasculitis", "format": "in vivo", "settings": "one or two doses of DX1 at 25 mg/kg, assessed day 20, versus MPO immunized control", "method": "FIG. 9. Graphic depiction of an experiment testing the impact of DX1 in a 20-day mouse model of ANCA vasculitis.\nFIGS. 10A-10D. […] Mice were treated as depicted in FIG. 9. Glomerular segmental necrosis, macrophages, neutrophils, and CD4+ T-cells was evaluated in control and MPO-immunized mice that subsequently were treated with or without one or two doses of DX1.\nMice receiving two doses of DX1 received their second dose at day 18. Mice were culled for assessment at day 20.\nMice were separated into 4 groups: Ova control (n=4); MPO immunized no treatment with DX1 (n=8); MPO immunized and 1 dose of DX1 at 25 mg/kg (n=8) and; MPO immunized and 2 doses of DX1 at 25 mg/kg."}},
  "note": "Entries after “also recorded” stand apart in the source; their conditions may differ.",
  "data": [
    {"molecule": "DX1: 3E10 derivative, a di-scFv having the sequence SEQ ID NO: 38; nuclear-penetrating anti-DNA binding protein (protein, DX1 sequence) scFv: DIQMTQSPSSLSASLGDRATITCRASKTVSTSSYSYMHWYQQKPGQPPKLLIKYASYLESGVPSRFSGSGSGTDFTLTISSLQPEDAATYYCQHSREFPWTFGGGTKVEIKTVDAAPGGGGSGGGGSGGGGSEVQLVESGGGLVQPGGSLRLSCAASGFTFSNYGMHWVRQAPGKGLEWVSYISSGSSTIYYADSVKGRFTISRDNAKNSLYLQMNSLRAEDTAVYYCARRGLLLDYWGQGTTVTVSSASTKGPSVFPLAPLESTGSDIQMTQSPSSLSASLGDRATITCRASKTVSTSSYSYMHWYQQKPGQPPKLLIKYASYLESGVPSRFSGSGSGTDFTLTISSLQPEDAATYYCQHSREFPWTFGGGTKVEIKTVDAAPGGGGSGGGGSGGGGSEVQLVESGGGLVQPGGSLRLSCAASGFTFSNYGMHWVRQAPGKGLEWVSYISSGSSTIYYADSVKGRFTISRDNAKNSLYLQMNSLRAEDTAVYYCARRGLLLDYWGQGTTVTVSS", "values": [
      {"measurement": "cells penetrated by DX1", "setting": "[1]", "result": "~100", "unit": "%"},
      {"measurement": "intracellular H3Cit content normalized to actin, relative to unstimulated cells", "setting": "[2]", "result": "1.46±0.20"},
      {"measurement": "glomerular segmental necrosis, macrophages, neutrophils and CD4+ T-cells (glomerular inflammation and pathology)", "setting": "[3]", "result": "significantly reduced glomerular inflammation and pathology; also recorded: significantly reduced amounts of all of the signs of glomerular inflammation"}
    ]}
  ]
}
